Assay results as given in patent US20230203142A1, “TREATMENT OF METABOLIC DISORDERS THROUGH THE TARGETING OF A NOVEL CIRCULATING HORMONE COMPLEX” (The President and Fellows of Harvard College, priority 2020, published 2023).

What was measured:
[1] = biological target: T1, recombinant ADK (Homo sapiens, UniProt P55263); assay: Recombinant kinase activity assay, ADK (Kinase-Glo); format: biochemical
T1 construct: purchased Novus Biologicals or R&D Systems NBP1-44382 or 8024-AK-025
Protocol: An on-bead kinase assay was developed to measure the activity of endogenous NDPK and ADK pulled down from serum using a-Ab or c-Ab conjugated beads. Both NDPK and ADK are bi-directional kinases that will produce ATP or ADP depending on the substrates provided (FIGS. 4B-C). Kinase activity assays were performed in 384-well plates in reaction buffer (PBS with 0.1% BSA, 0.01% F-127, 5 mM MgCl2). Experiments with recombinant proteins were performed at final concentrations of 40 μg/ml for ADK and FABP4, and 20 ug/ml for NDPK, and a reaction volume of 10 μl. Antibodies were used at a final concentration of 80 ug/ml. Substrates were added in equimolar ratios depending on the kinase being assayed and the direction of the reaction in serial dose responses, with the highest concentration of 5 μM. Proteins and substrates were incubated for 1 hr at room temperature, and ADP and ATP production were monitored using ADP-Glo and Kinase-Glo kits, respectively, according the manufacturer instructions (V6930 and V6711 Promega, USA). Luminescence was quantified using a SpectraMax Paradigm plate reader 30 min after the addition of substrate. Consistent with the MS results, ADK activity, as measured by generation of ATP, was specifically observed in samples pulled down with a-Ab but not c-Ab (FIG. 5A). […] To test this possibility, the ATP and ADP generating activity of recombinant ADK was assessed in the presence of the proposed complex components.

[2] = test system: NOD mice; assay: a-Ab treatment in NOD model of T1D; format: in vivo, mouse
Protocol: WT female NOD mice matched for age, weight, blood glucose, plasma insulin, and circulating FABP4 levels were utilized to explore the effect of antibody-mediated FABP4 targeting in the context of T1D, (FIGS. 2D-G). Mice were treated twice weekly with a-Ab, PBS, or a control antibody of the same isotype (c-Ab) starting at 10 weeks of age, when insulitis had already been established. […] Collectively, a-Ab-mediated protection against T1D and improvement of glycemic control in a DIO model of T2D are both associated with improved beta cell mass and function.
To investigate the contribution of proliferation to the increase in beta cell mass, NOD mice were treated with BrdU along with a-Ab, c-Ab, or PBS for 5 weeks beginning at 10 weeks of age. […] This difference is likely associated with the pro-proliferative environment of DIO as compared to the NOD model. […] Thus, targeting the FABP4-ADK-NDPK complex with a-Ab preserves beta cell mass and enhances beta cell function to protect against diabetes.
Pancreata were dissected and fixed in 10% zinc buffered formalin for 24-48 hrs before being washed and stored in 70% ethanol. Samples were paraffin embedded, and sectioned in steps 250 μm apart. Immunostaining for insulin, glucagon, BrdU and Cleaved Caspase 3 was performed as described previously (Prentice et al., 2014; Rezania et al., 2014). Images of each section were acquired using Aperio Imagescope at 20× magnification. The beta- or alpha-cell area was calculated by using positive pixel count analysis (Aperio ImageScope). Islet number and size was determined by manually circling insulin positive clusters in the Aperio ImageScope software. Two blinded individuals independently performed manual analysis and insulitis scoring.

[3] = test system: INS1 cells; assay: Cytosolic calcium flux, Fura-2 AM imaging; conditions: 20 mM glucose
[4] = test system: INS1 cells; assay: Glucose-stimulated insulin secretion (GSIS), INS1 cells; format: cell-based, rat
Protocol: This finding was recapitulated in both primary human islets from multiple non-diabetic donors (FIG. 6B), as well as INS1 cells (FIG. 6C). Human islets from review board approved healthy donors were isolated using the Edmonton protocol and provided by the IsletCore and Clinical Islet Laboratory (University of Alberta, Canada). Donors with a BMI<25 and HbA1c<6.0% were used for experiments. Islets were hand-picked three times and cultured at 37° C. in RPMI media with 10% FBS and 1% Penicillin/Streptomycin overnight before use. For INS1 cells, cells were plated at 8000 cells/well in 96-well plates and incubated overnight prior to experimentation. Insulin secretion assay was performed as above using 200 μl/well for each treatment. Cells were lysed using 80 μl ultrapure water and flash freezing. For siRNA experiments, INS1 cells were allowed to reach confluency before transfection of siRNA (Horizon Discovery; L-090381-02-0005) using Lipofectamine 3000 (Thermo Fischer; L3000015) according to manufacturer protocol for 48 hours prior to assays.
As additional controls, it was explored whether lipid binding was required for FABP4 action. […] FABP4 inhibitor studies were performed using BMS-309403 (10 nM; Sigma #BM0015).
To further elucidate the role of purinergic receptors in this signaling process, a potent and selective P2Y1 inhibitor, MRS2179 (Baurand et al., 2001) was utilized. […]

[5] = test system: INS1 cells
Protocol: Cells were pre-treated with P2Y1 activator (0.5 nM; MRS2365 Tocris #2157) during the pre-incubation period. Cells were stimulated with ATP (5 μM; Promega #V915A) or ADP (2.5 μM; Promega #V916A) acutely with the addition of LG and HG KRB during the serial stimulation. Cells were treated with 100 ng/ml recombinant human FABP4 (produced in-house), 200 ng/ml recombinant human ADK (Novus Biologicals, product number NBP1-44382 or R&D Systems, product number 8024-AK-025), or 100 ng/ml recombinant human NDPK-A (Acro Biosystems, product number NM1-H5147) where indicated, for the pre-incubation period, as well as during the glucose stimulation.
Briefly, INS1 cells were plated in imaging disks at 5000 cells/dish and cultured in standard media overnight. Cells were washed with PBS, and incubated in imaging buffer without glucose, with or without calcium containing Fura-2 AM (2 mM; ThermoFisher F1201) for 30 minutes at 37° C. Cells were washed twice with fresh PBS, and placed in lml imaging buffer. Calcium flux was evaluated with the addition of 20 mM glucose, 30 mM KCl, or 1 μM Thapsigargin. Extracellular calcium was added at 1.5 mM. Calcium flux measurements were performed using an epifluorescence system coupled to a Ti-S/L100 inverted microscope L100 with fluorescent light source (X-Cite 120LED System) equipped with Lambda DG-4 Plus for UV ratiometric probes. Excitations at 340 nm and 380 nm were used and an emission of 510 nm. Analysis was performed using ImageJ software. Calcium flux was measured from 50 cells per coverslip.

[6] = among the mice that developed diabetes

T1 sequence (P55263 whole entry): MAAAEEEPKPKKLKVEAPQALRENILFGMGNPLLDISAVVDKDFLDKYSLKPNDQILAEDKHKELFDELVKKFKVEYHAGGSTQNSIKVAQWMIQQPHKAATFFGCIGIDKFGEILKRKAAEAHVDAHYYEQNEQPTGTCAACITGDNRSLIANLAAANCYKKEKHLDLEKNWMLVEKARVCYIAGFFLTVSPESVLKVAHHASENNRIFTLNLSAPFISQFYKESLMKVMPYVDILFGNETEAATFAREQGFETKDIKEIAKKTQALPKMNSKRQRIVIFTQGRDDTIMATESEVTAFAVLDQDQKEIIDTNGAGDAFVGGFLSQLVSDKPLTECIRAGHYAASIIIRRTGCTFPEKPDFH

B1: a-Ab: monoclonal antibody previously reported as CA33; heavy chain SEQ ID NO 446, light chain SEQ ID NO 447; binds FABP4 and NDPK (antibody, listed as Homo sapiens)
heavy: QSVEESGGRLVTPGTPLTLTCTVSGFSLSTYYMSWVRQAPGKGLEWIGIIYPSGSTYCASWAKGRFTISKASTTVDLKITSPTTEDTATYFCARPDNDGTSGYLSGFGLWGQGLVTVSSAKTTPPSVYPLAPGSAAQTNSMVTLGCLVKGYFPEPVTVTWNSGSLSSGVHTFPAVLQSDLYTLSSSVTVPSSTWPSETVTCNVAHPASSTKVDKKIVPRDC
light: DVVMTQTPASVSEPVGGTVTIKCGASEDISRYLVWYQQKPGQPPKRLIYKASTLASGVPSRFKGSGSGTDFTLTISDLECDDAATYYCQCTYGTYAGSFFYSFGGGTEVVVERTDAAPTVSIFPPSSEQLTSGGASVVCFLNNFYPKDINVKWKIDGSERQNGVLNSWTDQDSKDCTYSMSSTLTLTKDEYERHNSYTCEATHKTSTSPIVKSFNRNEC
- ADK activity to produce ATP ([1]; added to the NDPK-ADK/FABP4 complex, compared to the complex alone): no effect
- ADK activity to generate ATP ([1]; recombinant ADK plus the added component): no effect
- overall number of BrdU positive beta cells ([2]; NOD mice, 5 weeks, compared to c-Ab): no significant difference
- islet number and beta cell mass ([2]; NOD mice, compared to c-Ab-treated controls): significant increase
- CC3 positive beta cells ([2]; NOD model, vs controls): profound reduction
- blood glucose [2, 6]: significantly reduced
- plasma insulin levels [2, 6]: higher
- body weight, plasma insulin, or blood glucose levels ([2]; among the non-diabetic mice, throughout the study): no significant differences
- development of T1D ([2]; female NOD mice, twice weekly from 10 weeks of age): significantly protected
- GSIS both in vivo and ex vivo ([2]; non-diabetic NOD mice): improved
- glycemic control during GTT ([2]; non-diabetic NOD mice): improved
- glucagon positive area ([2]; pancreatic sections, NOD mice): significant reduction
- extracellular calcium influx in response to glucose [3]: rescue
- GSIS in the presence of the NDPK-ADK/FABP4 complex [4]: rescued
- ER calcium efflux [5]: rescue
